Measured values taken from patent publication CN116444667A (SHANGHAI IASO BIOTECH CO LTD, dated 2023).

T1: Biotinylated Human GDF15 Protein (Primary Amine Labeling), KACTUS, GDF-HM215B (human, UniProt Q99988 197-308, biotinylated (primary amine labeling))
T1 construct: Bought protein; also called human GDF15-bio-hFc; humanGDF15-bio-hFc; not shown: hFc tag
T1 sequence (looked up): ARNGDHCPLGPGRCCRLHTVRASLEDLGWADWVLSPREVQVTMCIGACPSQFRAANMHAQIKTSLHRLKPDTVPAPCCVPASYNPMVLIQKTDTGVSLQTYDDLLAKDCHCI

T2: Biotinylated CD39 Protein, hFc Tag, KACTUS, CD9-HM239B (UniProt P49961 38-478, biotinylated)
T2 construct: Control antigen; also called CD39-bio-hFc; 负淘选抗原; not shown: hFc tag
T2 sequence (looked up): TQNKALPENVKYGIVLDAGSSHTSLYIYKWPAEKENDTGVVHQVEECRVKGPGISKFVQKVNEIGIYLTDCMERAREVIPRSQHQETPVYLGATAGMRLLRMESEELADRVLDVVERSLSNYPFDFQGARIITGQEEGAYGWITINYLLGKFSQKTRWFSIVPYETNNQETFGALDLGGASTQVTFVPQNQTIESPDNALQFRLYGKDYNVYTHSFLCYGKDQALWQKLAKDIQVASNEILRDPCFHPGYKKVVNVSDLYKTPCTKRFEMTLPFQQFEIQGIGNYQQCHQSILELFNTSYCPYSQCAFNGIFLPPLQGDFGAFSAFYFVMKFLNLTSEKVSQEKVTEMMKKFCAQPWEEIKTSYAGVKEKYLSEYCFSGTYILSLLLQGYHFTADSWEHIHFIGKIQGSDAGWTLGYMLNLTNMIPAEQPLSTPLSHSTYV

T3: Human Latent GDF-2/BMP-9 Protein, His tag, Acro, GD2-H52H3 (human, UniProt Q9UK05 23-429)
T3 construct: Bought protein, latent form; not shown: His tag
T3 sequence (looked up): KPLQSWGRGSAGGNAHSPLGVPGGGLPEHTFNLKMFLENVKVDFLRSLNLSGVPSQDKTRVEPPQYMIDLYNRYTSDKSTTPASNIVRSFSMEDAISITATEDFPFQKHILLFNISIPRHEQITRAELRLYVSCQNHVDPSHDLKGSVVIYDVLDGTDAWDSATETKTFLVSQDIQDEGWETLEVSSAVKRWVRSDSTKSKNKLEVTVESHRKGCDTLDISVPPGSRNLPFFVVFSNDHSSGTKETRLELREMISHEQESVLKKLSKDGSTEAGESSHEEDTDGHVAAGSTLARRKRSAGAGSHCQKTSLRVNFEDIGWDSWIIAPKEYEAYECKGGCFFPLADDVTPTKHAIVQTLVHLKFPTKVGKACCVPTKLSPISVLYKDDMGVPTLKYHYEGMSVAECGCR

T4: GDF15 hFc tag, KACTUS, GDF-HM215 (UniProt Q99988 197-308)
T4 construct: also called GDF15蛋白; not shown: hFc tag
T4 sequence (looked up): T1 sequence (looked up)

B1: Clone 68 (噬菌体单克隆) (other)
VH: QVQLVQSGAEVKKPGASVKVSCKASGYTFTNYGINWVRQAPGQGLEWMGWISAYNGYTDYAQKLQGRVSMTTDTSTSTVYMELRSLRSDDTAVYYCARDDAINGGDYWGQGTLVTVSS
VL: not shown
B2: Clone 68 抗GDF15 IgG (human IgG4) (Fc fusion)
chain: QVQLVQSGAEVKKPGASVKVSCKASGYTFTNYGINWVRQAPGQGLEWMGWISAYNGYTDYAQKLQGRVSMTTDTSTSTVYMELRSLRSDDTAVYYCARDDAINGGDYWGQGTLVTVSSTSGGGGSGGGGSGGGGSELSYVLTQPPSASGTPGQRVTISCSGSSSNIGINTVNWYQQLPGTAPKLLIYINNQRPSGVPDRFSGSKSGTSASLAISGLQSEDEADYYCAAWDDSLNAYVFGSGTKVTVL
notes: also called GDF15 mAb; not shown: human IgG4 Fc

Tests used:
[1] = molecular target: T1, Biotinylated Human GDF15 Protein …; assay: phage ELISA
[2] = molecular target: T2, Biotinylated CD39 Protein, hFc Tag, …; assay: phage ELISA
[3] = molecular target: T3, Human Latent GDF-2/BMP-9 Protein, His …; assay: phage ELISA
[4] = molecular target: T5, Streptavidin (SA蛋白), Pierce, 21125 (UniProt P22629 37-163, limits assumed); assay: phage ELISA
T5 construct: Control antigen in the specificity ELISA; also called Strepavidin
T5 sequence (P22629 37-163 limits assumed): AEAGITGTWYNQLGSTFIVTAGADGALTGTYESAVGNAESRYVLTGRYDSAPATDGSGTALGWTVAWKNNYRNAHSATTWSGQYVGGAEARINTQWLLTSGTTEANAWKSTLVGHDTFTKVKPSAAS

[5] = molecular target: T4, GDF15 hFc tag, KACTUS, GDF-HM215; assay: competition ELISA: GDF15 hFc coated, antibody titrated against GFRAL His tag (competitor), anti-His HRP

Binder | binding result [1] | binding result [2] | binding result [3] | binding result [4] | EC50 [5]
B1 | binds | no binding | no binding | no binding | –
B2 | – | – | – | – | 1.4 nM
